Measurements as given in article PMC12691273.

B1: chicken forkhead box O1 (FOXO1) wild-type [chicken] / Ran protein [chicken (endogenous in granulosa cells)] (parent)
chain 1: MAEAPQLVDIDPDFEPLPRPRSCTWPLPRPEFNPPSSATSSPAPSCGGQPDGAAAAGAAVAVAASGALSADFISNLCLVEESEDFALPPAAAAPPESAACRCGDFSAPEAGCRLHPPGPPPVPPVPPAVAALSPGPVAGQPRKSSSSRRNAWGNLSYADLITKAIESSPEKRLTLSQIYEWMVKSVPYFKDKGDSNSSAGWKNSIRHNLSLHSKFIRVQNEGTGKSSWWMLNPEGGKSGKSPRRRAASMDNNSKFAKSRGRAAKKKASLQSGQEGNGDSPGSQFSKWPASPSSHSNDDFDNWSTFRPRTSSNASTISGRLSPILPEQDDLGDGDVHSMVYPSSATKMTSTLPSLSEMSSSENMENLLDNLNLLSPNTSMTVSTQSSSAALMQQTPGYSFASSTTSICSPNPDYRKFTYAQASMNSLPQIPMQTLQDSKSSYGSMSQFNCPAGLLKELLTSDSPPHNDILASVDTGVSQAGGRALGQGVLMVTNSVMPTYGNQPPHNKMMNPNARPHQGHNQPTPAVNGRALSHTVNPMSHTSCLNRLSTVKTSLQVPMSHQMQMNAMNPYAPVNSCNGYGRVGIVSLHQEKLPSDLDDMLIERLDCDMESIIRNDLMDGETLDFNFDSVLPNQSFQHSVKTTTHSWVSG
chain 2: not shown

Variants of: B1
Test: co-immunoprecipitation (IP FOXO1, WB Ran), band quantification
Conditions: with Ran protein [chicken (endogenous in granulosa cells)]
[1] = with 740-Y-P, n = 3, read off a plot
[2] = with Ly294002, n = 3, read off a plot

| response [1] | response [2] | Variant |
| --- | --- | --- |
| 1.2 | 0.28 | chain 1 S248A |
| 1.3 | 0.33 | chain 1 S311A |
